Measurements published in the supplement of paper PMC10065799, “High-throughput profiling of sequence recognition by tyrosine kinases and SH2 domains using bacterial peptide display” (eLife, 2023).

Key:
[1] = molecular target: Fyn (UniProt P06241); test: phosphorylation enrichment, bacterial display (enrichment ratio); higher = better substrate or ligand; peptides without Tyr show the background
[2] = molecular target: EPHB2 (UniProt P29323); test: as above
[3] = molecular target: Jak2 (UniProt O60674); test: as above
[4] = system: c-Abl (mouse); test: as above
[5] = system: Fer (mouse); test: as above
[6] = molecular target: MERTK (UniProt Q12866); test: as above
MERTK, sequence (Q12866 whole entry, looked up): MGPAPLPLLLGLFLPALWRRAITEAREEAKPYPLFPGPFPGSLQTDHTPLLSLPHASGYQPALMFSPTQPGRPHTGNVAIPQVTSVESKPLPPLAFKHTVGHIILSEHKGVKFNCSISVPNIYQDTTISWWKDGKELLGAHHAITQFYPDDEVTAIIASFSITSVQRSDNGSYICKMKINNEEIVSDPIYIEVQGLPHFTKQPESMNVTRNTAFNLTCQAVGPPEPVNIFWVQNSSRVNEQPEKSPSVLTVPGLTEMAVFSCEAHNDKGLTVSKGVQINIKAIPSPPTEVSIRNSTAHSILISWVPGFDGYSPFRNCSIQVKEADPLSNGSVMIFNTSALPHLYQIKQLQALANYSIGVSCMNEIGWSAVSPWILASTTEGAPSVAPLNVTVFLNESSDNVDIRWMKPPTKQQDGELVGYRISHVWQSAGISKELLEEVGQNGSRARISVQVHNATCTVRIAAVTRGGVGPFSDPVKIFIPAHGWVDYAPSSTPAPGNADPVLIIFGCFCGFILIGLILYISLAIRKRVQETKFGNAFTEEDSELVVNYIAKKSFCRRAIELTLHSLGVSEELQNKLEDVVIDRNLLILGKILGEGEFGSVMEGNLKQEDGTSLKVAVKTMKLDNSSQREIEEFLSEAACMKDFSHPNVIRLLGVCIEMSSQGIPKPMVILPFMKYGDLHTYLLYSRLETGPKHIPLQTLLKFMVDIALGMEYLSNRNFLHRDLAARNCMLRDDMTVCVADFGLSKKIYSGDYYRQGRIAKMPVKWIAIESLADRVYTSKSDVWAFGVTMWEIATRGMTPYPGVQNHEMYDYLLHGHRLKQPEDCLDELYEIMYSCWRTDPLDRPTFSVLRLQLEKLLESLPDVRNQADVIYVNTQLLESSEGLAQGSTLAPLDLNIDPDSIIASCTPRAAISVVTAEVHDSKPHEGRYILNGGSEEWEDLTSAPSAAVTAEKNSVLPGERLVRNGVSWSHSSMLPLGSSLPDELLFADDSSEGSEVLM

[7] = molecular target: FGFR1 (UniProt P11362); test: as above
FGFR1, sequence (P11362 whole entry, looked up): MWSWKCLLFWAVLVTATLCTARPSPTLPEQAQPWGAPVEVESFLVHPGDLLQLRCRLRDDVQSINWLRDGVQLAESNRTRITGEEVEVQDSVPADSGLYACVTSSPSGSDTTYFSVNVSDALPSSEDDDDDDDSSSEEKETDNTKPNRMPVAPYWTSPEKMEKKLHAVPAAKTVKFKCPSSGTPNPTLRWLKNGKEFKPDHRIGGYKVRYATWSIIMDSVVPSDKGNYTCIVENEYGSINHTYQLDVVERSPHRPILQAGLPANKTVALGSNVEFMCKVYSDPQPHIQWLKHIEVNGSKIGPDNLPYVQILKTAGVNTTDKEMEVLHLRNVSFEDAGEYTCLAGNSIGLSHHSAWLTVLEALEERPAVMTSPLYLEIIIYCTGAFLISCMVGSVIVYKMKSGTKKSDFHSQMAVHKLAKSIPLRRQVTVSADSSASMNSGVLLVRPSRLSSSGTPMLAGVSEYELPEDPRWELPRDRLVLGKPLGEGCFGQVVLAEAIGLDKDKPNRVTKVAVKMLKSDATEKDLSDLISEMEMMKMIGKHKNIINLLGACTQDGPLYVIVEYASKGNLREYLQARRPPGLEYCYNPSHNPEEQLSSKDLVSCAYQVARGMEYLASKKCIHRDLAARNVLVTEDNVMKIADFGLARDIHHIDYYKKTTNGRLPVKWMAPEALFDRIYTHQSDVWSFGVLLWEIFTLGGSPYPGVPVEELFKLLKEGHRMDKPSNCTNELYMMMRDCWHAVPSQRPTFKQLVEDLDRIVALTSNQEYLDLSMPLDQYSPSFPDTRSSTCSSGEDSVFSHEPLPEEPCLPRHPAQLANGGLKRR

[8] = system: AncSZ; test: as above
[9] = molecular target: Hck (UniProt P08631); test: as above
Hck, sequence (P08631 whole entry, looked up): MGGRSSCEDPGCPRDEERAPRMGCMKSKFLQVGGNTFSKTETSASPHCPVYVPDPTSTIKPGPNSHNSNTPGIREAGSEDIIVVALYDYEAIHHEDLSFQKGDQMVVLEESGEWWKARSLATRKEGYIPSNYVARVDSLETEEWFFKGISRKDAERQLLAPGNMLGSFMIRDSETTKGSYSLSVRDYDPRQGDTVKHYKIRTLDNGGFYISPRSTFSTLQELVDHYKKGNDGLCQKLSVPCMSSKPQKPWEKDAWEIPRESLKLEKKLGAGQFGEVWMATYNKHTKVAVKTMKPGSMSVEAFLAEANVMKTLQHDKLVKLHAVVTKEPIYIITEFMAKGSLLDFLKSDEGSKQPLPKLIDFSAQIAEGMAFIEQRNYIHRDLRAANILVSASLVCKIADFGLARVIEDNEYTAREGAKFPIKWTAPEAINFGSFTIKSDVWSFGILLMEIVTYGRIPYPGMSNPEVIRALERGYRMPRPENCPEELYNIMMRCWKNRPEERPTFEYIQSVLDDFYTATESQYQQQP

[10] = molecular target: Fes (UniProt P07332); test: as above
Fes, sequence (P07332 whole entry, looked up): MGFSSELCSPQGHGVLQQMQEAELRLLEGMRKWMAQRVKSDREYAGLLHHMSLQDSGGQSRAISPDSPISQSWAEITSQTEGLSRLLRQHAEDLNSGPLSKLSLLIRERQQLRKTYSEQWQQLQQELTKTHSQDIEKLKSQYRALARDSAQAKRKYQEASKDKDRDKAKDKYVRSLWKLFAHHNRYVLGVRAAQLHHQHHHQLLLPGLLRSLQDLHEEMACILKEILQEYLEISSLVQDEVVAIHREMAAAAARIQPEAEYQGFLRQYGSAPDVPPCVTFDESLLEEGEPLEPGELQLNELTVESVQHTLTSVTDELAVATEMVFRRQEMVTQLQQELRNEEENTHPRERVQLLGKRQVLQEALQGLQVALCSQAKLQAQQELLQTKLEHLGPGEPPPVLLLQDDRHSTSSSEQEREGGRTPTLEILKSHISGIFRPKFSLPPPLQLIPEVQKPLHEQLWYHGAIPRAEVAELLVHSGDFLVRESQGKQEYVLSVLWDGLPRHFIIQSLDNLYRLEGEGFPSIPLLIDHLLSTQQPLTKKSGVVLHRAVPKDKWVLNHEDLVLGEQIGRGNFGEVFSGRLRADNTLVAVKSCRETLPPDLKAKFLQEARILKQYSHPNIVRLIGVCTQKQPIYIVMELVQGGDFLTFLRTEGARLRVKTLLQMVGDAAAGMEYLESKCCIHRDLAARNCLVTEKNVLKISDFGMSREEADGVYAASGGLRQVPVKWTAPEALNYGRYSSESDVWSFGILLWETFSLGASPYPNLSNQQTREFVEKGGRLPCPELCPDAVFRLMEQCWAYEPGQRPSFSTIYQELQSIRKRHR

[11] = molecular target: EPHB1 (UniProt P54762); test: as above
EPHB1, sequence (P54762 whole entry, looked up): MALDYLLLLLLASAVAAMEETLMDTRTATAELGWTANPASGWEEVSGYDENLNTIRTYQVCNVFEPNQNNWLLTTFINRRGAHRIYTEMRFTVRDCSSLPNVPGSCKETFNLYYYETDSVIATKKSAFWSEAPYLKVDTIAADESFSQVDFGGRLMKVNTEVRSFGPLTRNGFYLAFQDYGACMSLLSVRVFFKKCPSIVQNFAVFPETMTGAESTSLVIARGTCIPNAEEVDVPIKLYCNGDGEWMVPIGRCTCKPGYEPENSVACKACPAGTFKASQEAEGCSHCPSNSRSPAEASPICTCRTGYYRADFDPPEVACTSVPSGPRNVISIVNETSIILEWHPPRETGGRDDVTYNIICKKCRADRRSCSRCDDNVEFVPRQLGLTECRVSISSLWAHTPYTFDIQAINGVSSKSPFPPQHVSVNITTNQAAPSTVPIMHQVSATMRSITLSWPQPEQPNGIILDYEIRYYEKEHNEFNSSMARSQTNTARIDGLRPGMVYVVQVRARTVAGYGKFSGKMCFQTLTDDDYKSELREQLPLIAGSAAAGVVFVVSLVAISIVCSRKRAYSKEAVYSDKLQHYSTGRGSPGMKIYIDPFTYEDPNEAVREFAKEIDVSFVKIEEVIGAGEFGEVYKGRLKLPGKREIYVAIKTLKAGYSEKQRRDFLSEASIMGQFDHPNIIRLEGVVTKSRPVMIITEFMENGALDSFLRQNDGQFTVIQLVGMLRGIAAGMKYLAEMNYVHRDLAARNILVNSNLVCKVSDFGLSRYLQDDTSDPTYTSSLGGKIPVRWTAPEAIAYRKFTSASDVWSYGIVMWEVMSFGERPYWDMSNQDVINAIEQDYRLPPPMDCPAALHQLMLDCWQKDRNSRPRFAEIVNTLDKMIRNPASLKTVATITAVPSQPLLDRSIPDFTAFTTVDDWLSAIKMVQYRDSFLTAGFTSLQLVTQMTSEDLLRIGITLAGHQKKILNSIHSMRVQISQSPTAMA

[12] = molecular target: FGFR3 (UniProt P22607); test: as above
[13] = system: c-Src; test: as above
[14] = molecular target: SHP2-C SH2; test: SH2 binding enrichment of the phosphorylated peptide, bacterial display (enrichment ratio); higher = better substrate or ligand; peptides without Tyr show the background
[15] = molecular target: c-Src SH2; test: as above
[16] = molecular target: Grb2 SH2 (UniProt P62993); test: as above
Grb2 SH2, sequence (P62993 whole entry, looked up, the tested form may be a part): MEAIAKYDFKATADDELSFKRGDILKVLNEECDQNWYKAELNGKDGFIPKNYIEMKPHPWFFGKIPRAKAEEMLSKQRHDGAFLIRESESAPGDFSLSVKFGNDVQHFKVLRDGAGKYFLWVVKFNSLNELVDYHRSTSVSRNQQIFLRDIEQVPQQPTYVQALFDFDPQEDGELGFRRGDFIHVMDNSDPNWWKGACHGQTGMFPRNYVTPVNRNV
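Throughout, for SH2 binding enrichment of the phosphorylated peptide, bacterial display: peptide library displayed on the E. coli surface as eCPX fusions, selected cells deep-sequenced, score is each peptide's frequency after selection divided by its frequency in the input.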
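Throughout, for phosphorylation enrichment, bacterial display: 11-residue human phosphosite peptides and single-mutation variants displayed on the E. coli surface, counted by deep sequencing, each peptide's frequency after selection divided by its frequency in the unselected input library; frequency after pTyr selection over input frequency; kinase dosed for 20-30% of maximal phosphorylation in three min.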

Fyn, sequence (P06241 whole entry, looked up): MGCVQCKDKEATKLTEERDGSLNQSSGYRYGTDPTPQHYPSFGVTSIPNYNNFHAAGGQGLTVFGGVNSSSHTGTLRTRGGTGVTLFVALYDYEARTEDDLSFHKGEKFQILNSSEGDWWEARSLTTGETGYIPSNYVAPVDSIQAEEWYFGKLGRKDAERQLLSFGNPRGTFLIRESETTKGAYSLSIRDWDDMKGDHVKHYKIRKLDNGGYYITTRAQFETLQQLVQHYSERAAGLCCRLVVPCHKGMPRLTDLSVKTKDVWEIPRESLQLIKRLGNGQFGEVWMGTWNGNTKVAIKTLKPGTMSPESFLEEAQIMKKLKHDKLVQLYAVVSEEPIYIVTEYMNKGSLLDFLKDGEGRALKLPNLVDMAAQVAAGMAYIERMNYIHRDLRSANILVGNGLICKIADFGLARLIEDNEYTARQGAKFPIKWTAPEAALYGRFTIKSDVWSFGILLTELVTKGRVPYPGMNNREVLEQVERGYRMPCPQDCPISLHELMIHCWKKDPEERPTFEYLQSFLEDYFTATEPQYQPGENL

Sequence	phosphorylation enrichment [1]	phosphorylation enrichment [2]	phosphorylation enrichment [3]	phosphorylation enrichment [4]	phosphorylation enrichment [5]	phosphorylation enrichment [6]	phosphorylation enrichment [7]	phosphorylation enrichment [8]	phosphorylation enrichment [9]	phosphorylation enrichment [10]	phosphorylation enrichment [11]	phosphorylation enrichment [12]	phosphorylation enrichment [13]	SH2 binding enrichment [14]	SH2 binding enrichment [15]	SH2 binding enrichment [16]
DDPRRYQKFGF [OAS1_Y362_YF]	0.502	0.425	0.674	0.418	0.414	0.475	0.438	0.593	0.398	0.667	0.376	0.528	0.321	0.909	0.467	1.15
SSEILYHIIKG [CDH17_Y489_K486E]	2.85	0.684	1.69	10.4	1.08	8.04	10.9	1.38	5.02	0.875	0.806	8.65	4.11	1.18	2.4	1.2
SNKELYEKFMI	1.14	0.539	0.894	0.559	10.2	1.51	0.507	0.859	1.45	0.872	0.571	0.543	1.78	0.705	0.526	0.79
YEPDAYYDLDQ [ELP5_Y302_D303Y]	1.62	0.833	1.61	0.861	0.919	0.65	8.16	1.82	0.852	1.56	1.05	6.94	2.06	0.626	1.88	0.807
FSIDFYRVGGH [NTRK2_Y707_T704I_YF]	0.465	0.573	1.24	0.837	0.466	0.429	0.531	1.19	0.456	1.37	0.593	0.719	0.436	0.814	0.548	0.926
NTFEKYLEEEF [TF_Y669_G671E_YF]	0.389	0.61	1.17	0.692	0.551	0.426	0.407	1.25	0.497	1.26	0.6	0.754	0.495	0.66	0.572	0.781
WQQQSYLDSRI [CTNNB1_Y30_G34R]	0.465	0.473	0.623	0.482	0.455	0.515	0.484	0.675	0.476	0.793	0.444	0.496	0.4	0.645	0.571	0.894
LLREWYMIFSR [HUWE1_Y4066_I4069F]	0.755	1.57	2.17	1.8	0.943	0.932	0.713	2.11	0.915	2	1.07	1.14	1.45	1.05	0.852	1.21
YSGLAYTMERS [GLUD1_Y512_H507Y]	1.09	0.355	0.873	0.607	0.398	0.849	0.463	0.765	1.64	0.833	0.386	0.558	1.43	1.48	1.59	0.682
YHLGKYLQEVL [KLB_Y910_Y906H]	0.524	0.724	0.87	0.685	0.452	0.383	0.527	1.18	0.498	1.1	0.481	0.739	0.298	0.565	0.435	0.878
GESSGYLRLAF [MEP1A_Y481_R476G]	0.474	0.49	1.02	0.752	0.507	0.464	0.559	0.964	0.451	1.02	0.536	0.696	0.459	4.31	0.602	0.919
YQQLFYLLQTN [IQGAP2_Y890]	0.751	0.758	1.39	1.03	0.692	2.7	2.75	1.36	1.17	1.35	1.92	2.26	1.3	1.83	1.11	1.49
GLIPAYHRVIV [NMNAT1_Y64_M69V]	0.458	0.453	1.15	0.622	0.44	0.437	0.627	0.804	0.481	0.933	0.515	0.639	0.371	0.957	1.26	0.987
DIRAQYDELAQ [KRT18_Y256_R261Q]	0.576	0.574	0.864	0.614	0.45	0.582	0.49	1.08	0.574	1.06	0.546	0.753	0.473	0.687	7.43	0.633
YEEDPYLVVNP [MCM6_Y810]	1.99	0.56	1.37	0.861	0.825	0.605	1.52	1.79	1.06	1.37	0.648	1.52	2.48	0.855	3.48	1.2
EQMLEYMEQLQ [CFAP45_Y289]	0.549	0.561	1.1	0.532	0.526	0.494	0.764	1.21	0.638	0.994	0.579	0.846	0.505	0.5	0.357	0.799
